Columns and labels:
[1] = biological target: MBP-SpbK (full-length SpbK as a maltose-binding protein fusion) (Bacillus subtilis); test: mass photometry + SEC-MALS; MBP-SpbK wild type and mutants in solution; 10 mM HEPES pH 7.5, 150 mM NaCl; Superdex 200 5/150 Increase for SEC-MALS; self-association
[2] = biological target: MBP-SpbK G194R (Bacillus subtilis); test: as above
[3] = biological target: MBP-SpbK D158R (Bacillus subtilis); test: as above
[4] = biological target: the molecule itself; test: mass photometry; YonE in solution; 10 mM HEPES pH 7.5, 150 mM NaCl; self-association

## MBP-SpbK (full-length SpbK as a maltose-binding protein fusion) (natural protein)
[1]
  stoichiometry N: 2

## MBP-SpbK G194R (natural protein)
[2]
  stoichiometry N: 2

## MBP-SpbK D158R (natural protein)
[3]
  stoichiometry N: 2

B1: YonE (residues 46-506), portal protein of phage SPβ (natural protein, Bacillus subtilis phage SPβ, UniProt O31953 46-506, looked up)
chain: EAEQLKNYFSNPDEFQEEIEDLAQYFYISTAEIHQLFELIEALPTLNYKIDSFNKVKSSDKHISLLNKSLHKVKHKRLTRDLLKQVATAGTLVGIWLGDAKSPYPFIFDEIKYVFPSFRRNGDWVCVVDMELFTKYKDDQRNELLKSLSPYIKQSDYENFMKDREKYRFKELPQERTFPLRTGTLKRNQGLGTSWVTPGLYDVLHKKKLKDVERSIANKIINAVAVLTIGTDKGNGEYTNMKLPKAVKQKIHGGVKTALEKNQKDGVTVVSIPDFADINFPDVKADGLDGAKFDHINSDIQSAYGLSGSLLNGDGGNYATSSLNLDTFYKRIGVLMEDIEQEVYQKLFNLVLPAAQKDNYYMNYDKDKPLTLKEKMDILIKLNDKGWSIKHVVDNLAGVSWESYLEQTLYETEELKLQEKIRPYQTSYTFTGNEVGRPNEGNKNNDNTVKSATSNGNDNPI
notes: YonE, product of the SPβ gene yonE, portal protein; truncated construct lacking the first 45 residues, residues 46-506; Dodecamer by mass photometry and cryo-EM; printed theoretical mass of the dodecamer 665 kDa; also called wild-type YonE; YonE dodecamer; source: E. coli BL21 (DE3), autoinduction, purified (IMAC, SEC); copies: 12
[4]
  stoichiometry N: 12

From publication PMC12847820, “Molecular characterisation of the Bacillus subtilis SpbK antiphage defence system” (Nature Communications, 2025)
